Data on 19 molecules can be found in patent US20150344570A1 (published 2015).

The target in assay [1] is T1, FcγRIa (human, UniProt P12314 16-292).
T1 construct: extracellular domain; Soluble extracellular domain with C-terminal His tag, used as analyte in Biacore; also called FcgRI; 1a; not shown: His tag attached to the C terminus
As to the kind of experiment: SPR (Biacore); He/Con_1a divided by He/Con_2b (binding to FcγRIa against binding to FcγRIIb). The method, then: The heterodimerized antibodies He Abs in which one of the H chains was introduced with an alteration were assayed for their binding activities to each activating FcγR and inhibitory FcγR according to the method described in Example 4. […] The activating FcγRs in FIGS. 26, 27, 28, and 29 are FcγRIa, FcγRIIa (R), FcγRIIa (H), and FcγRIIIa, respectively.
(§1) Analysis of interaction between objective antibody and the FcγR was carried out using Biacore T100 (GE Healthcare). HBS-EP+ (GE Healthcare) was used as the running buffer, and the measurement temperature was set to 25° C. Chips produced by immobilizing the antigen peptide by the amine coupling method to a Series S Sencor Chip CM5 (GE Healthcare), or alternatively, chips produced by allowing preliminarily biotinylated antigen peptides to interact with and immobilize onto a Series S Sensor Chip SA (certified) (GE Healthcare) were used. Antibodies of interest were captured onto an antigen peptide-immobilized chip, and allowed to interact to each FcγR diluted with running buffer. To regenerate and repeatedly use the chip, the antibodies captured on the chip were washed off by reacting 10 mM glycine-HCl, pH 1.5.
Background: In SPR one partner is held on a chip, and binding of the other changes the refractive index at the surface.
T1 sequence (P12314 16-292): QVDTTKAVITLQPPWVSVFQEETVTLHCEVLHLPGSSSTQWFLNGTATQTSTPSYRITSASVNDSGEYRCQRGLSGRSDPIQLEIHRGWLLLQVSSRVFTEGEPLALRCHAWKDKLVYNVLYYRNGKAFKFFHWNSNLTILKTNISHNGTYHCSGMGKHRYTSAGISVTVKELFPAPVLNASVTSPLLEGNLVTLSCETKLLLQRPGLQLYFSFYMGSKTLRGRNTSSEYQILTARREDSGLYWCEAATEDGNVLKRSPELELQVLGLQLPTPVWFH

In assay [2] the target is T1, FcγRIa. The assay can be described thus: SPR (Biacore), antibody captured, FcγR as analyte; relative to GpH7-A5/GpH7-B3/GpL16-k0 = 100.
The target in assay [3] is T2, FcγRIIb (human, UniProt P31994 43-217).
T2 construct: extracellular domain; Soluble extracellular domain with C-terminal His tag, used as analyte in Biacore; also called FcgRIIb; 2b; not shown: His tag attached to the C terminus
T2 sequence (looked up): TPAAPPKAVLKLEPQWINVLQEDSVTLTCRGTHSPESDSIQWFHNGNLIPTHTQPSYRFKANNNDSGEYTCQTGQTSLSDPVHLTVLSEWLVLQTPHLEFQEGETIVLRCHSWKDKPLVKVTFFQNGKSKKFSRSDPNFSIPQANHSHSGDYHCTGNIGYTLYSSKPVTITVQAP
The assay is described as above.

Assay [4] addresses T3, FcγRIa (human, UniProt P12314 16-292).
T3 construct: extracellular domain; Soluble extracellular domain with C-terminal His tag, expressed in FreeStyle293 cells; analyte in Biacore; also called FcgRI; CD64; not shown: His tag attached to the C terminus
As to the kind of experiment: SPR (Biacore), antibody captured on antigen-peptide chip, FcγRIa as analyte; binding activity relative to control GpH7-B3/GpL16-k0 (HoCon Ab) x100. On the procedure: as §1
T3 sequence (P12314 16-292): as the sequence (P12314 16-292) above

B1: GpH7-A5/GpH7-B3 variant L234_09D/GpL16-k0 (antibody, human IgG1, kappa)
heavy 1: not shown
heavy 2: not shown
light: DIVMTQSPLSLPVTPGEPASISCQASESLVHSNRNTYLHWYLQKPGQSPQLLIYKVSNRFSGVPDRFSGSGSGTDFTLKISRVEAEDVGVYYCSQNTHVPPTFGQGTKVEIERTVAAPSVFIFPPSDEQLKSGTASVVCLLNNFYPREAKVQWKVDNALQSGNSQESVTEQDSKDSTYSLSSTLTLSKADYEKHKVYACEVTHQGLSSPVTKSFNRGEC
notes: Heterodimerized anti-glypican-3 IgG1; alteration in the GpH7-B3 chain only; also called He Ab
For B1, the “He_1a/2b (Ia/IIb)” value in assay [1] was determined as 0.65 ratio. Also, the He/Con_1a in assay [2] is 97.8 % of control (=100). The He/Con_2b in assay [3] was 150 % of control (=100).

B2: GpH7-B3 variant Y300_01G/GpL16-k0 (homodimerized antibody, Ho Ab) (antibody, human IgG1, kappa)
heavy: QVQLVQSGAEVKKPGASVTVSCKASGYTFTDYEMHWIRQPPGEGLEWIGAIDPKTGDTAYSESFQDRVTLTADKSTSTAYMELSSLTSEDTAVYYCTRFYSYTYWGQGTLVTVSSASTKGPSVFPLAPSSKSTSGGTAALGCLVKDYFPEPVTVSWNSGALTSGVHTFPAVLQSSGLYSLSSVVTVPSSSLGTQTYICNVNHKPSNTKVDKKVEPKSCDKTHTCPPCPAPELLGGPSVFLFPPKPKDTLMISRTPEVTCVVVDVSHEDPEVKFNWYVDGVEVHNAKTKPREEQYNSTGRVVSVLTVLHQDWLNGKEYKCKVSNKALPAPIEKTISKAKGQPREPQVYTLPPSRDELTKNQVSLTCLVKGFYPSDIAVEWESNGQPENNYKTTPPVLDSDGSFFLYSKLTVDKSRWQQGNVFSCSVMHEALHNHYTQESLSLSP
light: B1 light
notes: Anti-glypican-3 IgG1 (G1d with K439E); same alteration in both H chains
On to B2, for which, in assay [4], the Ho/Con_1a is 109 % of control (=100).

B3: GpH7-B3 variant Y296_11K/GpL16-k0 (homodimerized antibody, Ho Ab) (antibody, human IgG1, kappa)
heavy: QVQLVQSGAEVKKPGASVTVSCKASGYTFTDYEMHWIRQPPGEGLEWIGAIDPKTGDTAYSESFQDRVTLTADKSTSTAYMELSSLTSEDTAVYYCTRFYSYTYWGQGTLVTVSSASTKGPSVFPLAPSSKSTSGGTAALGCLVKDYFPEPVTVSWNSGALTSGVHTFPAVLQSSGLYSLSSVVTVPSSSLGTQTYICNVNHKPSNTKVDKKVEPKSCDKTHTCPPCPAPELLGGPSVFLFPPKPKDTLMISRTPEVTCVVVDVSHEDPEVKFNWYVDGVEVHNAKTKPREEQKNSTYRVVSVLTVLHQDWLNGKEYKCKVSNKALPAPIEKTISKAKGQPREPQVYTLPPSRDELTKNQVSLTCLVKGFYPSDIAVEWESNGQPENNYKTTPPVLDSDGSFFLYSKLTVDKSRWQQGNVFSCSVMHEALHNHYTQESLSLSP
light: B1 light
notes: as for B2
For the molecule B3, the Ho/Con_1a in assay [4] was 102 % of control (=100).

B4: GpH7-B3 variant Y296_10E/GpL16-k0 (homodimerized antibody, Ho Ab) (antibody, human IgG1, kappa)
heavy: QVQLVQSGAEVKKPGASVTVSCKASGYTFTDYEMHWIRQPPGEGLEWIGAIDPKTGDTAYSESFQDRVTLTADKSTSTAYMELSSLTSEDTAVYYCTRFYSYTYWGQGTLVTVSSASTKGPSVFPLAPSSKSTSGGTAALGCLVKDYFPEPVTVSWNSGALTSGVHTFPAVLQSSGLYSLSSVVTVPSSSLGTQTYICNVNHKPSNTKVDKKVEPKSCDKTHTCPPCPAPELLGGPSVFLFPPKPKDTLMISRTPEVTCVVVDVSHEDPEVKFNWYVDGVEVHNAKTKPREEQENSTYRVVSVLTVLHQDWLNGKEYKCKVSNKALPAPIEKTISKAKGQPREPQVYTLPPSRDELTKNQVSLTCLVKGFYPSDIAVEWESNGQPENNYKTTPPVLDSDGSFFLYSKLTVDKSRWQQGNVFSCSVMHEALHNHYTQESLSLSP
light: B1 light
notes: as for B2
On to B4, for which, in assay [4], the Ho/Con_1a was 106 % of control (=100).

B5: GpH7-A5/GpH7-B3 variant V266_06M/GpL16-k0 (antibody, human IgG1, kappa)
heavy 1: not shown
heavy 2: not shown
light: B1 light
notes: as for B1
In the case of B5, in assay [1], the “He_1a/2b (Ia/IIb)” value is 0.4 ratio. The He/Con_1a in assay [2] is 99.7 % of control (=100). The He/Con_2b in assay [3] was 251 % of control (=100).

B6: GpH7-B3 variant Y296_12R/GpL16-k0 (homodimerized antibody, Ho Ab) (antibody, human IgG1, kappa)
heavy: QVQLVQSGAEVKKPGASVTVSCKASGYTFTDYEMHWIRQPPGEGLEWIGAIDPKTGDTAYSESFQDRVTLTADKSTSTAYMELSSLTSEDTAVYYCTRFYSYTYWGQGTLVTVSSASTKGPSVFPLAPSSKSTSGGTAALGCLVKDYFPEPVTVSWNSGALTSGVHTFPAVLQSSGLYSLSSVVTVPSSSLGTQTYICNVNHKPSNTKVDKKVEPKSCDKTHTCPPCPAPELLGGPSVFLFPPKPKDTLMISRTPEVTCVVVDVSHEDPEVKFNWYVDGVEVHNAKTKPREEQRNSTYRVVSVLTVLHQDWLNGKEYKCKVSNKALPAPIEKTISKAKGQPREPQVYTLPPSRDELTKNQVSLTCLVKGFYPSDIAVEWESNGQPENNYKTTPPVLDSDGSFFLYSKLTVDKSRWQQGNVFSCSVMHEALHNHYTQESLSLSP
light: B1 light
notes: as for B2
In the case of B6, the Ho/Con_1a in assay [4] is 103 % of control (=100).

B7: GpH7-A5/GpH7-B3 variant S239_09D/GpL16-k0 (antibody, human IgG1, kappa)
heavy 1: not shown
heavy 2: not shown
light: B1 light
notes: as for B1
In the case of B7, the “He_1a/2b (Ia/IIb)” value in assay [1] was found to be 0.49 ratio. Also, the He/Con_1a in assay [2] is 101 % of control (=100). Further, the He/Con_2b in assay [3] is 206 % of control (=100).

B8: GpH7-B3 variant T335_16H/GpL16-k0 (homodimerized antibody, Ho Ab) (antibody, human IgG1, kappa)
heavy: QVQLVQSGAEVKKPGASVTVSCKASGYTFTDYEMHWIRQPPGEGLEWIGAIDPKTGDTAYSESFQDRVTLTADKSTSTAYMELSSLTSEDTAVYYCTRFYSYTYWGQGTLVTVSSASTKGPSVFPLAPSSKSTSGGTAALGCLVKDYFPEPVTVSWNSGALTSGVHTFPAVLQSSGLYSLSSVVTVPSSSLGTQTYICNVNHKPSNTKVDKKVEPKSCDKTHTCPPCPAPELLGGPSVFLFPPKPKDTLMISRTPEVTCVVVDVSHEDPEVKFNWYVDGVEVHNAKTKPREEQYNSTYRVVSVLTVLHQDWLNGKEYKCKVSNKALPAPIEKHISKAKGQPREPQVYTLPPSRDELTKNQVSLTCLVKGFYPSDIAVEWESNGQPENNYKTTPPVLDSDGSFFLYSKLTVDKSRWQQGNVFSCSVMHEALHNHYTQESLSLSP
light: B1 light
notes: as for B2
As to B8, the Ho/Con_1a in assay [4] is 104 % of control (=100).

B9: GpH7-B3 variant Y300_02A/GpL16-k0 (homodimerized antibody, Ho Ab) (antibody, human IgG1, kappa)
heavy: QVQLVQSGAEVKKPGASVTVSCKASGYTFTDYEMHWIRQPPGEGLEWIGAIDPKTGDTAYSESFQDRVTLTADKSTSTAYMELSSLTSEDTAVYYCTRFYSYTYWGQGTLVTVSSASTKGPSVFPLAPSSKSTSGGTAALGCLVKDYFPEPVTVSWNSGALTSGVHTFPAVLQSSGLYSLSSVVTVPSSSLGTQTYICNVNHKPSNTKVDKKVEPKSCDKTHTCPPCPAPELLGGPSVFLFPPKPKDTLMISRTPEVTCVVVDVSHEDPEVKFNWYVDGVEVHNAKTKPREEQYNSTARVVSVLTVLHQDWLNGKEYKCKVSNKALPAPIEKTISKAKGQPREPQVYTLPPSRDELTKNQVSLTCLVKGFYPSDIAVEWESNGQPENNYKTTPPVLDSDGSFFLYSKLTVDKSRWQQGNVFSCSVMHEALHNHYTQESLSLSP
light: B1 light
notes: as for B2
As for B9, in assay [4], the Ho/Con_1a is 110 % of control (=100).

B10: GpH7-B3 variant T335_18N/GpL16-k0 (homodimerized antibody, Ho Ab) (antibody, human IgG1, kappa)
heavy: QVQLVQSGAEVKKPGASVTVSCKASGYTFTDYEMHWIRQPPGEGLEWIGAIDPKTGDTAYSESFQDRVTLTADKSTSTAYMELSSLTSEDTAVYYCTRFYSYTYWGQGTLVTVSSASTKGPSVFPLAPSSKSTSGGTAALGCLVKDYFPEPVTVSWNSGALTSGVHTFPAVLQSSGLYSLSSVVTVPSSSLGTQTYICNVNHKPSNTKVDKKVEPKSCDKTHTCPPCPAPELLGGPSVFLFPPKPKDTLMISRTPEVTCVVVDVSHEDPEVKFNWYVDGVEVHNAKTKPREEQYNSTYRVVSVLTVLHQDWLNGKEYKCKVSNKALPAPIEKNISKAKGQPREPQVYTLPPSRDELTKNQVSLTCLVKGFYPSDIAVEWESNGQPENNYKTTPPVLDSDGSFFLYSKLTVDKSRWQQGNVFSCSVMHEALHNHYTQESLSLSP
light: B1 light
notes: as for B2
As for B10, the Ho/Con_1a in assay [4] is 102 % of control (=100).

B11: GpH7-A5/GpH7-B3 variant L235_20W/GpL16-k0 (antibody, human IgG1, kappa)
heavy 1: not shown
heavy 2: not shown
light: B1 light
notes: as for B1
On to B11, for which the “He_1a/2b (Ia/IIb)” value in assay [1] was 0.63 ratio. Further, the He/Con_1a in assay [2] is 92.8 % of control (=100). Also, in assay [3], the He/Con_2b is 147 % of control (=100).

B12: GpH7-A5/GpH7-B3 variant P238_06M/GpL16-k0 (antibody, human IgG1, kappa)
heavy 1: not shown
heavy 2: not shown
light: B1 light
notes: as for B1
For B12, the “He_1a/2b (Ia/IIb)” value in assay [1] came to 0.59 ratio. The He/Con_1a in assay [2] was 102 % of control (=100). For the same molecule, in assay [3], the He/Con_2b is 174 % of control (=100).

B13: GpH7-B3 variant Y296_16H/GpL16-k0 (homodimerized antibody, Ho Ab) (antibody, human IgG1, kappa)
heavy: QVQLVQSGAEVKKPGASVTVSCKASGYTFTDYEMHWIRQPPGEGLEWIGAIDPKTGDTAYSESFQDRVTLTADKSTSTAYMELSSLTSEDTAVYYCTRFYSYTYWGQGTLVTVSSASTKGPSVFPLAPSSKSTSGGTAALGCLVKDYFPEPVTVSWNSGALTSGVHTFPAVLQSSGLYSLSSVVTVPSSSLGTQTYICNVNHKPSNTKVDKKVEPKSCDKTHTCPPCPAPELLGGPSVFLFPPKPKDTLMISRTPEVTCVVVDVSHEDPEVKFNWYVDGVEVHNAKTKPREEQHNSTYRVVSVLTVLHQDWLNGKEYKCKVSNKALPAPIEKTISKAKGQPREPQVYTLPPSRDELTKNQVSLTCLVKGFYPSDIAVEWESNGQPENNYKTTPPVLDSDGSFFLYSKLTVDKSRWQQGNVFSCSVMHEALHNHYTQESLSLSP
light: B1 light
notes: as for B2
For the molecule B13, the Ho/Con_1a in assay [4] is 105 % of control (=100).

B14: GpH7-B3 variant Y300_08L/GpL16-k0 (homodimerized antibody, Ho Ab) (antibody, human IgG1, kappa)
heavy: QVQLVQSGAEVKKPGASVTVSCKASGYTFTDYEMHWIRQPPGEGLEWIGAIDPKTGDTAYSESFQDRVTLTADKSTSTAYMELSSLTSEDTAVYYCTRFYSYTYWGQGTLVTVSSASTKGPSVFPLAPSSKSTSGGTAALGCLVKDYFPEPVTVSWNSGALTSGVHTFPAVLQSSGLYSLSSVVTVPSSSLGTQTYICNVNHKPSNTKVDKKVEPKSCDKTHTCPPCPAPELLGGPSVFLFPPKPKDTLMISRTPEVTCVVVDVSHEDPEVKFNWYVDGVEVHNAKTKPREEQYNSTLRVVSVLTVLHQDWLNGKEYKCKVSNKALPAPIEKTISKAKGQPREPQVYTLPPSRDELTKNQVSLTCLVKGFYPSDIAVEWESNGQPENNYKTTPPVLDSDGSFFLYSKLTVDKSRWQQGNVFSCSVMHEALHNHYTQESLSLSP
light: B1 light
notes: as for B2
Turning to B14, the Ho/Con_1a in assay [4] is 109 % of control (=100).

B15: GpH7-A5/GpH7-B3 variant L235_09D/GpL16-k0 (antibody, human IgG1, kappa)
heavy 1: not shown
heavy 2: not shown
light: B1 light
notes: as for B1
For the molecule B15, the “He_1a/2b (Ia/IIb)” value in assay [1] was determined as 0.8 ratio. For the same molecule, the He/Con_1a in assay [2] is 84.8 % of control (=100). In assay [3], the He/Con_2b is 106 % of control (=100).

B16: GpH7-B3 variant Y300_06M/GpL16-k0 (homodimerized antibody, Ho Ab) (antibody, human IgG1, kappa)
heavy: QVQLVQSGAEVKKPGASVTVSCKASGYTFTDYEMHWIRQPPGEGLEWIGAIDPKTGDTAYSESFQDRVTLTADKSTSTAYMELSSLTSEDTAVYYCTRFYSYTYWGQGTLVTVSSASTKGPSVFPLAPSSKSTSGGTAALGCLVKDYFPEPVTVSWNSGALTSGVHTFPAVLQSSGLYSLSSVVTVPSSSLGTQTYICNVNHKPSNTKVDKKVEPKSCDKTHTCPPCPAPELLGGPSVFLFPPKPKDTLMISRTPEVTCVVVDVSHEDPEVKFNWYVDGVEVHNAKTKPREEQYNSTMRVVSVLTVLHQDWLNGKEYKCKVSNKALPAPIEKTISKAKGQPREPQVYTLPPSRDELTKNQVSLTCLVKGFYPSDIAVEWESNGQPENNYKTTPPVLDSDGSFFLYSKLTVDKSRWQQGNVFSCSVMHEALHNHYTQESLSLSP
light: B1 light
notes: as for B2
As for B16, in assay [4], the Ho/Con_1a was 111 % of control (=100).

B17: GpH7-B3 variant Y296_14T/GpL16-k0 (homodimerized antibody, Ho Ab) (antibody, human IgG1, kappa)
heavy: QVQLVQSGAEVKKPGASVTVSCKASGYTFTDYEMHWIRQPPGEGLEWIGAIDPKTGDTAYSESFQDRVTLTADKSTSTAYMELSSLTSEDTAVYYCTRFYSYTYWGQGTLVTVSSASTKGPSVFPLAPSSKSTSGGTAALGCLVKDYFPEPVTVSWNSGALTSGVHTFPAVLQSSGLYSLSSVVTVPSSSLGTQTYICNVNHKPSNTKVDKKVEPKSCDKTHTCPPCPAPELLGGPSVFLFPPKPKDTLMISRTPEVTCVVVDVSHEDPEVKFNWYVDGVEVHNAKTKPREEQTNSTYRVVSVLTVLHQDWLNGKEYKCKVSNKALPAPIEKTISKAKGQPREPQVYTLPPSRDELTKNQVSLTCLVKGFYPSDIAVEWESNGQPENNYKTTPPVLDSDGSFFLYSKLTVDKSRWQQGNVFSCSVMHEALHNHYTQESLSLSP
light: B1 light
notes: as for B2
Regarding B17, the Ho/Con_1a in assay [4] was 105 % of control (=100).

B18: GpH7-A5/GpH7-B3 variant L235_15Y/GpL16-k0 (antibody, human IgG1, kappa)
heavy 1: not shown
heavy 2: not shown
light: B1 light
notes: as for B1
B18: the “He_1a/2b (Ia/IIb)” value in assay [1] was found to be 0.65 ratio. In assay [2], the He/Con_1a was 97.1 % of control (=100). The He/Con_2b in assay [3] was 149 % of control (=100).

B19: GpH7-B3 variant Y296_18N/GpL16-k0 (homodimerized antibody, Ho Ab) (antibody, human IgG1, kappa)
heavy: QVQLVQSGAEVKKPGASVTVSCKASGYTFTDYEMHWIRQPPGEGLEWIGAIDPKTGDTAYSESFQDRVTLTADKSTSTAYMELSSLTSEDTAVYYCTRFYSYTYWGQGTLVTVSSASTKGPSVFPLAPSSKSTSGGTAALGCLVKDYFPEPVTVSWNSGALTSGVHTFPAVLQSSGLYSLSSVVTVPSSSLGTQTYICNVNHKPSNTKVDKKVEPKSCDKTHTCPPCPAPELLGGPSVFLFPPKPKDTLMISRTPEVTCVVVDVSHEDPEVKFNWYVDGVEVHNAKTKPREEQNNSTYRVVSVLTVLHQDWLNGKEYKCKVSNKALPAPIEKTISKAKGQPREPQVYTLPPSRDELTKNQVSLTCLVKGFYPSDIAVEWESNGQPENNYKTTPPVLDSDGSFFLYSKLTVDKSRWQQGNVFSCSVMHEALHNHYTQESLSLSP
light: B1 light
notes: as for B2
Take B19: in assay [4], the Ho/Con_1a is 105 % of control (=100).
